Results published in doi:10.1101/2021.05.06.442907.

Target: actin filaments (UniProt P68135)

Chara braunii myosin XI-1 motor domain construct without IQ motifs (domain or fragment)
Vmax of actin-activated ATPase activity, 25 °C (Pi s^−1 head^−1): 410
